Data set [1] concerns the target T1, Rv1222 (Mycobacterium tuberculosis H37Rv) (UniProt L0T905).
T1 sequence: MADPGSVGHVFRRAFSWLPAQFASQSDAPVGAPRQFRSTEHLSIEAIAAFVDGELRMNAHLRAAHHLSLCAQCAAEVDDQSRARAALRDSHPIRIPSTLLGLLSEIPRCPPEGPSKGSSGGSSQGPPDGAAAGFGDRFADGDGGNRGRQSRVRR
The data set is described as follows: fluorescence anisotropy.

Data set [2] addresses T2, Mycobacterium tuberculosis sigma factor E (Mycobacterium tuberculosis, UniProt P9WGG7 1-257).
T2 sequence: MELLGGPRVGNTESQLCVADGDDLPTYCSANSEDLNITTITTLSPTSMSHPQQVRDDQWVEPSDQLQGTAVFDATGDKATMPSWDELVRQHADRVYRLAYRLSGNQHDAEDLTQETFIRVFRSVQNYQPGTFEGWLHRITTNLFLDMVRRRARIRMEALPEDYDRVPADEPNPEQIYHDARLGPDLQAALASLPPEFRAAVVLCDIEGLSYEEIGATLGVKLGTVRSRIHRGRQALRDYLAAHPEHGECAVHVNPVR
The data set is described as follows: fluorescence polarisation. A general note: Polarisation of emitted light reports the rotation of a fluorescent probe.

For data set [3], the target named is T3, Mycobacterium tuberculosis sigma factor A (Mycobacterium tuberculosis, UniProt P9WGI1 1-528).
T3 sequence: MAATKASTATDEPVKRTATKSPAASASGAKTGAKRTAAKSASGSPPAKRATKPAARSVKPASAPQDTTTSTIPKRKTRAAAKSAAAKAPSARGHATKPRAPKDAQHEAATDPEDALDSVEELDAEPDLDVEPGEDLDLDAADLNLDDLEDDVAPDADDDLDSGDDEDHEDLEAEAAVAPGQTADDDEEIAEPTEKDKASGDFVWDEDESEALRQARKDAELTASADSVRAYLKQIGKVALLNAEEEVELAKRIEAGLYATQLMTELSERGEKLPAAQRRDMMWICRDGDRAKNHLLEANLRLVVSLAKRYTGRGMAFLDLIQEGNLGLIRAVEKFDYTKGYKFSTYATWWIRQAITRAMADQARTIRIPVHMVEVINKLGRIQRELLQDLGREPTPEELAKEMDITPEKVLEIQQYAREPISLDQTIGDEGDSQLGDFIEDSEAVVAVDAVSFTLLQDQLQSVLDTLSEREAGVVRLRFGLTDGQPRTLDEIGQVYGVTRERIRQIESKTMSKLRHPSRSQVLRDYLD
The data set is described as follows: fluorescence polarisation.

Data set [4] concerns the target E. coli DNA polymerase (Klenow fragment) (E. coli, UniProt P00582 324-928). The data set is described as follows: fluorescence polarisation.

E. coli DNA polymerase (Klenow fragment), sequence (P00582 324-928): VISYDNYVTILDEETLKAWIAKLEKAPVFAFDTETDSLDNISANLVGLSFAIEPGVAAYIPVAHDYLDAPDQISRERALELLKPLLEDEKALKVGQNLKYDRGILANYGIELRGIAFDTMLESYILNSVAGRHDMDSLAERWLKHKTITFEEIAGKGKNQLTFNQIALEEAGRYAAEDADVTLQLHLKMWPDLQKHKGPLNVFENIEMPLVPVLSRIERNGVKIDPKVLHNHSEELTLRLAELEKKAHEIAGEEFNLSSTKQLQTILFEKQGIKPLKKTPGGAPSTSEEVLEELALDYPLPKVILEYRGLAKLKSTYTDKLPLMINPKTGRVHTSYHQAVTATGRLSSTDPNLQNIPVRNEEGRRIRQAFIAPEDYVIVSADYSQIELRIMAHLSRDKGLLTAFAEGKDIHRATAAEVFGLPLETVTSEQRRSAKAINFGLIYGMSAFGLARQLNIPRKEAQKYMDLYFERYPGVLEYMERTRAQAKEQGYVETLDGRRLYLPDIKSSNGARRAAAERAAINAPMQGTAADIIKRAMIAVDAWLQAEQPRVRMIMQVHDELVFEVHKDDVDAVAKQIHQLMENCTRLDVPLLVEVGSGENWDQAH

“GTGAGTATCTCGCAGTCCGACGCGTCGTTGGCCGCCGTCCCCGCCGTGGATCAGTTCGATCCGTCGTCAGGTGCATCAGGTGGCTACGACACCCCGCTGGGCATCACCAATCCGCCCATCGACGAGTTGCTGGACCGCGTCTCGAGCAAATACGCCCTCGTGATCTATGCGGCAAAGCGTGCCCGGCAGATCAACGACTACTACAACCAGCTTGGCGAGGGCATCCTCGAATATGTCGGTCCGCTGGTTGAGCCGGGGTTGCAAGAGAAGCCGTTGTCCATCGCGTTGCGCGAGATCCACGCCGATCTGCTCGAGCACACCGAGGGCGAGTAG (double strand) [promoterless DNA fragment]”: the dissociation constant Kd in data set [1] is 52 nM.

B1: Rv1222 of Mycobacterium tuberculosis, TMR labelled (natural protein)
chain: MADPGSVGHVFRRAFSWLPAQFASQSDAPVGAPRQFRSTEHLSIEAIAAFVDGELRMNAHLRAAHHLSLCAQCAAEVDDQSRARAALRDSHPIRIPSTLLGLLSEIPRCPPEGPSKGSSGGSSQGPPDGAAAGFGDRFADGDGGNRGRQSRVRR
B1: the Kd in data set [2] is approximately 270 nM; in data set [3], approximately 690 nM; in data set [4], 245 ± 78 nM.

As a reminder, the Kd is the free concentration of one partner at which half of the binding sites on the other are occupied at equilibrium, for simple one-to-one binding. Low values mean a tighter complex, high ones a looser complex.

The record behind these values is article PMC4499140 (Nucleic Acids Research, 2015).
